Columns and labels:
[1] = target: T1, AVI-tagged DOK3(1–330 aa) (UniProt Q7L591 1-330); assay: BLI
T1 sequence (looked up): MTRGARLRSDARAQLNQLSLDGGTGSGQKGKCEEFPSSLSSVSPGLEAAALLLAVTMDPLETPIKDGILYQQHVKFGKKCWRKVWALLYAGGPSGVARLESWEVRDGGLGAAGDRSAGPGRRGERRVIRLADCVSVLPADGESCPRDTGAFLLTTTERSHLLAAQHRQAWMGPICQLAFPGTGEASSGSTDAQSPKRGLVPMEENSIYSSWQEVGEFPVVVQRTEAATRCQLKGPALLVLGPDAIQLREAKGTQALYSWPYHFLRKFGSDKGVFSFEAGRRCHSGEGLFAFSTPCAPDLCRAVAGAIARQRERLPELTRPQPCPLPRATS

[2] = target: T1, AVI-tagged DOK3(1–330 aa); assay: BLI; remark: listed apart in the source

B1: His-PRDX1 recombinant protein (WT, 1-199 aa) (natural protein, UniProt Q06830 1-199, looked up)
chain: MSSGNAKIGHPAPNFKATAVMPDGQFKDISLSDYKGKYVVFFFYPLDFTFVCPTEIIAFSDRAEEFKKLNCQVIGASVDSHFCHLAWVNTPKKQGGLGPMNIPLVSDPKRTIAQDYGVLKADEGISFRGLFIIDDKGILRQITVNDLPVGRSVDETLRLVQAFQFTDKHGEVCPAGWKPGSDTIKPDVQKSKEYFSKQK
Question: Which results are given for B1?
Answer: Kd [1]: 15.5 µM; KD with SAB [2]: 1.77 µM

— article PMC12399193 (Acta Pharmaceutica Sinica. B, 2025)
